Substitutions are numbered along the chain they refer to. In names and notes the source's numbering stands.
B1: SEQ ID NO: 75: CeUGT_1,6 (Coffea eugenioides) (protein, listed as Coffea sp.)
chain: MAENHATFNVLMLPWLAHGHVSPYLELAKKLTARNFNVYLCSSPATLSSVRSKLTEKFSQSIHLVELHLPKLPELPAEYHTTNGLPPHLMPTLKDAFDMAEPNFCNVLKSLKPDLLIYDLLQPWAPEAASAFNIPAVVFISSSATMTSFGLHFFKNPGTKYPYGNTIFYRDYESVFVENLKRRDRDTYRVVNCMERSSKIILIKGFKEIEGKYFDYFSCLTGKKVVPVGPLVQDPVLDDEDCRIMQWLNKKEKGSTVFVSFGSEYFLSKEDMEEIAHGLELSNVDFIWVVRFPKGENIVIEETLPKGFFERVGERGLVVNGWAPQAKILTHPNVGGFVSHCGWNSVMESMKFGLPIIAMPMHLDQPINARLIEEVGAGVEVLRDSKGKLHRERMAETINKVTKEASGESVRKKARELQEKLELKGDEEIDDVVKELVQLCATKNKRNGLHYN
B2: SEQ ID NO: 76: CeUGT_1,6.2 (Coffea eugenioides) (protein, listed as Coffea sp.)
chain: MAENHATFNVLMLPWLAHGHVSPYLELAKKLTARNFNVYLCSSPATLSSVRSKLTEKFSQSIHLVELHLPKLPELPAEYHTTNGLPPHLMPTLKDAFDMAKPNFCNVLKSLKPDLLIYDLLQPWAPEAASAFNIPAVVFISSSATMTSFGLHFFKNPGTKYPYGNAIFYRDYESVFVENLTRRDRDTYRVINCMERSSKIILIKGFNEIEGKYFDYFSCLTGKKVVPVGPLVQDPVLDDEDCEIMQWLNKKEKVSTVFVSFGSEYFLSKKDMEEIAHGLELSNVDFIWVVRFPKGENIVIEETLPKGFFERVGERGLVVNGWAPQAKILTHPNVGGFVSHCGWNSVMESMKFGLPIIAMPMHLDQPINARLIEEVGAGVEVLRDSKGKLHRERMAETINKVMKEASGESVRKKARELQEKMDLKGDEEIDDVVKELVQLCATKNKRNGLHYY
B3: SEQ ID NO: 77: SgUGT94-289-3.2 (Siraitia grosvenorii) (protein)
chain: MADAAQQGDTTTILMLPWLGYGHLSAFLELAKSLSRRNFHIYFCSTSVNLDAIKPKLPSSFSDSIQFVELHLPSSPEFPPHLHTTNGLPPTLMPALHQAFSMAAQHFESILQTLAPHLLIYDSLQPWAPRVASSLKIPAINFNTTGVFVISQGLHPIHYPHSKFPFSEFVLHNHWKAMYSTADGASTERTRKRGEAFLYCLHASCSVILINSFRELEGKYMDYLSVLLNKKVVPVGPLVYEPNQDGEDEGYSSIKNWLDKKEPSSTVFVSFGSEYFPSKEEMEEIAHGLEASEVNFIWVVRFPQGDNTSGIEDALPKGFLERAGERGMVVKGWAPQAKILKHWSTGGFVSHCGWNSVMESMMFGVPIIGVPMHVDQPFNAGLVEEAGVGVEAKRDPDGKIQRDEVAKLIKEVVVEKTREDVRKKAREMSEILRSKGEEKFDEMVAEISLLLKI
B4: SEQ ID NO: 29: OsUGT1-2 (Oryza sativa) (protein, listed as Oryza sativa)
chain: MDSGYSSSYAAAAGMHVVICPWLAFGHLLPCLDLAQRLASRGHRVSFVSTPRNISRLPPVRPALAPLVAFVALPLPRVEGLPDGAESTNDVPHDRPDMVELHRRAFDGLAAPFSEFLGTACADWVIVDVFHHWAAAAALEHKVPCAMMLLGSAHMIASIADRRLERAETESPAAAGQGRPAAAPTFEVARMKLIRTKGSSGMSLAERFSLTLSRSSLVVGRSCVEFEPETVPLLSTLRGKPITFLGLMPPLHEGRREDGEDATVRWLDAQPAKSVVYVALGSEVPLGVEKVHELALGLELAGTRFLWALRKPTGVSDADLLPAGFEERTRGRGVVATRWVPQMSILAHAAVGAFLTHCGWNSTIEGLMFGHPLIMLPIFGDQGPNARLIEAKNAGLQVARNDGDGSFDREGVAAAIRAVAVEEESSKVFQAKAKKLQEIVADMACHERYIDGFIQQLRSYKD
B5: W401F: mutation to UGT enzyme of SEQ ID NO: 14 (protein)
chain: MATKNSSGMSLAERFWLTLSRSSLVVGRSCVEFEPETVPLLSTLRGKPITFLGLMPPLHEGRREDGEDATVRWLDAQPAKSVVYVALGSEVPLGVEKVHELALGLELAGTRFLWALRKPTGVSDADLLPAGFEERTRGRGVVATRWVPQMSILAHAAVGAFLTHCGWNSTIEGLMFGHPLIMLPITGDQGPNARLIEAKNAGLQVARNDGDGSFDREGVAAAIRAVAVEEESSKVFQAKAKKLQEIVADMACHERYIDGFIQQLRSYKDDSGYSSSYAAAAGMHVVICPWLAFGHLLPCLDLAQRLASRGHRVSFVSTPRNISRLPPVRPALAPLVAFVALPLPRVEGLPDGAESTNDVPHDRPDMVELHRRAFDGLAAPFSEFLGTACADWVIVDSFHHFAAAAALEHKVPCAMMLLGSAEMIASIADERLEHAETESPAAAGQGRPAAAPTFEVARMKLIR
B6: S266R: mutation to UGT enzyme of SEQ ID NO: 14 (protein)
chain: B5 chain with S266R, F401W
B7: S42E: mutation to UGT enzyme of SEQ ID NO: 14 (protein)
chain: B5 chain with S42E, F401W
B8: A130D: mutation to UGT enzyme of SEQ ID NO: 14 (protein)
chain: B5 chain with A130D, F401W
B9: P56A: mutation to UGT enzyme of SEQ ID NO: 14 (protein)
chain: B5 chain with P56A, F401W
B10: S323A: mutation to UGT enzyme of SEQ ID NO: 14 (protein)
chain: B5 chain with S323A, F401W
B11: H400Y: mutation to UGT enzyme of SEQ ID NO: 14 (protein)
chain: B5 chain with H400Y, F401W
B12: SEQ ID NO: 60: UGT_1,6 (Coffea Arabica) (protein, listed as Coffea arabica)
chain: MENHATFNVLMLPWLAHGHVSPYLELAKKLTARNFNVYLCSSPATLSSVRSKLTEKFSQSIHLVELHLPKLPELPAEYHTTNGLPPHLMPTLKDAFDMAKPNFCNVLKSLKPDLLIYDLLQPWAPEAASAFNIPAVVFISSSATMTSFGLHFFKNPGTKYPYGNAIFYRDYESVFVENLTRRDRDTYRVINCMERSSKIILIKGFNEIEGKYFDYFSCLTGKKVVPVGPLVQDPVLDDEDCRIMQWLNKKEKGSTVFVSFGSEYFLSKKDMEEIAHGLEVSNVDFIWVVRFPKGENIVIEETLPKGFFERVGERGLVVNGWAPQAKILTHPNVGGFVSHCGWNSVMESMKFGLPIIAMPMHLDQPINARLIEEVGAGVEVLRDSKGKLHRERMAETINKVMKEASGESVRKKARELQEKLELKGDEEIDDVVKELVQLCATKNKRNGLHYY

What was measured:
Mog. IIE or Mog. IE = assay: branched glycosylation reactions by cells expressing UGT enzymes; format: cell-based, E. coli; settings: Mog. IIE or Mog. IE fed; 37° C., 48 hr; LC-MS/MS
Procedure: Mog. IIE or Mog. IE was fed to cells expressing various UGT enzymes. Reactions were incubated at 37° C. for 48 hr. Products were quantified by LC-MS/MS with authentic standards of each compound. “Indirect” evidence means that consumption of substrate was observed.

steviol glycoside = steviol glycoside bioconversion by E. coli expressing individual mutations of UGT SEQ ID NO: 14; format: cell-based; settings: fold improvement of % conversion vs parent UGT SEQ ID NO: 14; stevia leaf extract and glucose fed; 37° C., 48 hr
In short: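 E. coli strains expressing single mutants of the parent UGT were fed stevia leaf extract and glucose and incubated at 37 °C for 48 hr. Steviol glycoside conversion was quantified by reverse-phase LC-DAD. Fold improvement is relative to % conversion by the parent enzyme.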

| Molecule | C3 1-2 (Mog. IIE or Mog. IE) | C3 1-6 (Mog. IIE or Mog. IE) | C24 1-2 (Mog. IIE or Mog. IE) | C24 1-6 (Mog. IIE or Mog. IE) | FI %Stevioside→rebE (steviol glycoside) | FI %rebA→rebD (steviol glycoside) |
| --- | --- | --- | --- | --- | --- | --- |
| B1 | Yes | Yes | Yes | Yes |  |  |
| B2 | No | Yes | No | Yes |  |  |
| B3 | No | Yes | No | Yes |  |  |
| B4 | No | No | No | Yes |  |  |
| B5 |  |  |  |  | 1.3 | 1.3 |
| B6 |  |  |  |  | 1.4 | 1.3 |
| B7 |  |  |  |  | 1.8 | 1.3 |
| B8 |  |  |  |  | 1.4 | 1.3 |
| B9 |  |  |  |  | 1.5 | 1.3 |
| B10 |  |  |  |  | 1.3 | 1.3 |
| B11 |  |  |  |  | 1.2 | 1.3 |
| B12 | No | Yes | Yes | Yes |  |  |

Source: patent US20260242839A1, “GLYCOSIDE PRODUCT BIOSYNTHESIS AND RECOVERY” (Manus Bio Inc., priority 2023, published 2026)
